Reference: article PMC8372784, “AMOTL2 mono-ubiquitination by WWP1 promotes contact inhibition by facilitating LATS activation” (Life Science Alliance, 2021)

Biological target: T1, GST-WWP1 (WW-domain containing protein 1) (UniProt Q9H0M0 1-922)
T1 construct: WWP1, HECT-type E3 ligase, full length; source: baculovirus-infected Sf9 insect cells, purified
Test: pull-down; GST or GST-WWP1 (1 μg) immobilised on glutathione-Sepharose 4B, 200 ng AMOTL2-V5; 20 mM Tris-Cl pH 7.9, 150 mM KCl, 0.2 mM EDTA, 20% glycerol, 0.05% NP-40, 0.2 mg/ml BSA; 4°C, 3 h; Western blot
Conditions: both partners purified

B1: AMOTL2-V5 (angiomotin-like 2) (natural protein, UniProt Q9Y2J4 1-779, looked up)
chain: MRTLEDSSGTVLHRLIQEQLRYGNLTETRTLLAIQQQALRGGAGTGGTGSPQASLEILAPEDSQVLQQATRQEPQGQEHQGGENHLAENTLYRLCPQPSKGEELPTYEEAKAHSQYYAAQQAGTRPHAGDRDPRGAPGGSRRQDEALRELRHGHVRSLSERLLQLSLERNGARAPSHMSSSHSFPQLARNQQGPPLRGPPAEGPESRGPPPQYPHVVLAHETTTAVTDPRYRARGSPHFQHAEVRILQAQVPPVFLQQQQQYQYLQQSQEHPPPPHPAALGHGPLSSLSPPAVEGPVSAQASSATSGSAHLAQMEAVLRENARLQRDNERLQRELESSAEKAGRIEKLESEIQRLSEAHESLTRASSKREALEKTMRNKMDSEMRRLQDFNRDLRERLESANRRLASKTQEAQAGSQDMVAKLLAQSYEQQQEQEKLEREMALLRGAIEDQRRRAELLEQALGNAQGRAARAEEELRKKQAYVEKVERLQQALGQLQAACEKREQLELRLRTRLEQELKALRAQQRQAGAPGGSSGSGGSPELSALRLSEQLREKEEQILALEADMTKWEQKYLEERAMRQFAMDAAATAAAQRDTTLIRHSPQPSPSSSFNEGLLTGGHRHQEMESRLKVLHAQILEKDAVIKVLQQRSRRDPGKAIQGSLRPAKSVPSVFAAAAAGTQGWQGLSSSERQTADAPARLTTDRAPTEEPVVTAPPAAHAKHGSRDGSTQTEGPPDSTSTCLPPEPDSLLGCSSSQRAASLDSVATSRVQDLSDMVEILI
notes: AMOTL2 (angiomotin-like 2), full length; The legends print AMOTL-V5; the text prints AMOTL2-V5; also called AMOTL-V5; source: baculovirus-infected Sf9 insect cells, purified
B1: binds.
